Reference: US20130150297A1 (KAI PHARMACEUTICALS, published 2013)
Square brackets hold non-standard residues; d marks the D form. Ends that are not written are not given here.

T1: human calcium-sensing receptor (CaSR) (human, UniProt P41180 20-1078)
T1 sequence (looked up): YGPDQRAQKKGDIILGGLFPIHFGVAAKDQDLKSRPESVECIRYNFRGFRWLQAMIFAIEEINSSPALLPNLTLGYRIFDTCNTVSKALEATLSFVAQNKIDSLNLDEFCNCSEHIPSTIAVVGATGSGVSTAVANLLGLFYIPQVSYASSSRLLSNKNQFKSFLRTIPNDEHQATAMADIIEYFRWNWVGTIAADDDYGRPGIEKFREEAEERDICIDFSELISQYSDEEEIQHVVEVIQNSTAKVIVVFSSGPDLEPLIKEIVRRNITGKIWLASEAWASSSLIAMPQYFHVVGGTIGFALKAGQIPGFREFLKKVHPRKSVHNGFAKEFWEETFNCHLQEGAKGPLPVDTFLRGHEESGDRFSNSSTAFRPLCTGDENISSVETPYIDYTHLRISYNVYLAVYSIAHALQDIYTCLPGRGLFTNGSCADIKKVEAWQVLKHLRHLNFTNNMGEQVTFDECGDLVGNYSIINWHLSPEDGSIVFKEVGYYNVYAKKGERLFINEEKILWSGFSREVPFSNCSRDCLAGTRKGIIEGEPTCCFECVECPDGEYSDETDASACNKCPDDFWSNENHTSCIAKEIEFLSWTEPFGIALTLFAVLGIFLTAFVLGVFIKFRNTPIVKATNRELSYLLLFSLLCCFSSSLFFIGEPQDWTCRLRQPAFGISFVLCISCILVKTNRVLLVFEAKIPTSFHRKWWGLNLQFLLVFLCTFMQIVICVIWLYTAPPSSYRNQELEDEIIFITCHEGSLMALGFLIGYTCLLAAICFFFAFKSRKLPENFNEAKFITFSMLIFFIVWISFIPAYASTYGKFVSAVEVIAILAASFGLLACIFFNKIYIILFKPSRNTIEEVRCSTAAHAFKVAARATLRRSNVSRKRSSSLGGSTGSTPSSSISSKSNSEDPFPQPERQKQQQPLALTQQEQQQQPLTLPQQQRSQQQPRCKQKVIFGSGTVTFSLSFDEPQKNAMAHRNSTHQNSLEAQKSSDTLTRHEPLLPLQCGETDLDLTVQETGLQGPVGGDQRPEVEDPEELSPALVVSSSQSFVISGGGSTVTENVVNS


target: T1, human calcium-sensing receptor (CaSR); assay: cell-based or functional assay

Binder | EC50 (µM), CaSR in vitro assay (IP1 production) [µM]
XXXXXXX (N-terminal acetyl; C-terminal amide; all residues D-amino acids; L-Cys carrying a 5 kDa polyethylene glycol (PEG5-C) attached to the side chain of D-Cys 1) [Ac-c(PEG5-C)rrrrrr-NH2] | 0.58
XXXXXXX (not fully specified; N-terminal acetyl; C-terminal amide; all seven residues D-amino acids; N-acetyl-L-Cys attached to the side chain of D-Cys 1) [Ac-c(Ac-C)arrrar-NH2] | 21
XXXXXXXX (N-terminal acetylated beta-alanine; C-terminal amide; Cys and Arg residues are D-amino acids) [Ac-bAla-crrrrrr-NH2] | 1
CXRXRXR (N-terminal acetyl; C-terminal amide; L-Cys 1, D-Ala 2, L-Arg 3, D-Arg 4, L-Arg 5, D-Ala 6, L-Arg 7) [Ac-CaRrRaR-NH2] | 5.6
XXXXX (N-terminal acetyl; C-terminal amide; all residues D-amino acids) [Ac-crrrr-NH2] | 16
XXXXXXX (N-terminal acetyl; C-terminal amide; residue 1 is D-homocysteine (dHcy); residues 2-7 D-Arg) [Ac-dHcy rrrrrr-NH2] | 2
(SEQ ID NO: 46) (SEQ ID NO: 47) conjugate, structure given only as drawing CHEM-US-00002 (cysteine pairing not given here; also: further groups not given here) peptide 1: CPDYHDAGI peptide 2: CYGRKKRRQRRR | 21
Ac-[dC][dA][dA][dA][dR][dR][dR][dR][dR][dR]-NH2 (SMILES CC(=O)N[C@H](CS)C(=O)N[C@H](C)C(=O)N[C@H](C)C(=O)N[C@H](C)C(=O)N[C@H](CCCNC(=N)N)C(=O)N[C@H](CCCNC(=N)N)C(=O)N[C@H](CCCNC(=N)N)C(=O)N[C@H](CCCNC(=N)N)C(=O)N[C@H](CCCNC(=N)N)C(=O)N[C@H](CCCNC(=N)N)C(N)=O) [Ac-caaarrrrrr-NH2] | 4.6
XXXXXXXXXXXX (N-terminal acetyl; C-terminal amide; printed in lower case (D-amino acids; glycine is achiral)) [Ac-cygrkkrrqrrr-NH2] | 2
XXXXXXX (N-terminal acetyl; C-terminal amide; all residues D-amino acids; benzoyl attached to the side chain of D-Cys 1) [Ac-c(Benzoyl)rrrrrr-NH2] | 3.6
(SEQ ID NO: 45) (SEQ ID NO: 47) conjugate, structure given only as drawing CHEM-US-00001 (cysteine pairing not given here; also: further groups not given here) peptide 1: CHDAPIGYD peptide 2: CYGRKKRRQRRR | 21
XAXXXAX (N-terminal acetyl; C-terminal amide; D-amino acids except L-Ala 2 and L-Ala 6) [Ac-cArrrAr-NH2] | > 1000
XXXXXXX (N-terminal acetyl; C-terminal amide; all seven residues D-amino acids; D-Cys 1 linked by a disulfide bond to an L-Cys residue) [Ac-c(C)arrrar-NH2] | 10
Ac-YGRKKRRQRRR-NH2 [Ac-YGRKKRRQRRR-NH2] | 16
XXXXXXX (N-terminal acetyl; C-terminal amide; all residues D-amino acids; oxidized glutathione (GS) attached to the side chain of D-Cys 1) [Ac-c(GS)rrrrrr-NH2] | 7.8
XXXXXXXX (not fully specified; N-terminal acetylated beta-alanine; C-terminal amide; c, a, r residues D-amino acids; D-Cys linked to an L-Cys residue) [Ac-bAla-c(C)arrrar-NH2] | 2.6
XXXXXXX (N-terminal acetyl; C-terminal amide; all residues D-amino acids; acetyl attached to the side chain of D-Cys 1) [Ac-c(acetyl)rrrrrr-NH2] | 4.1
XXXXXXX (N-terminal acetyl; C-terminal amide; all residues D-amino acids; mercaptopropionic acid (Mpa) attached to the side chain of D-Cys 1) [Ac-c(Mpa)arrrar-NH2] | 21
Ac-CARRRAR-NH2 [Ac-CARRRAR-NH2] | 58
XXXXXXX (not fully specified; N-terminal acetyl; C-terminal amide; L-Cys 1 linked by a disulfide bond to an L-Cys residue; residues 2-7 D-amino acids) [Ac-C(C)arrrar-NH2] | 2.5
Ac-CYGRKKRRQRRR-NH2 [Ac-CYGRKKRRQRRR-NH2] | 4.5
XXXXXXX (no N-terminal cap; C-terminal amide; all seven residues D-amino acids; D-Cys 1 linked to an L-Cys residue) [c(C)arrrar-NH2] | 3.1
XXXXXXX (no N-terminal cap; C-terminal amide; all residues D-amino acids) [crrrrrr-NH2] | 1.1
XXXXXXX (N-terminal acetyl; free C-terminal acid (-OH); all residues D-amino acids) [Ac-carrrar-OH] | 31

target: T1, human calcium-sensing receptor (CaSR); assay: cell-based or functional assay; remark: another data set of the same source

Binder | difference in potency relative to Ac-carrrar-NH2 (SEQ ID NO:26) [fold] | shift in potency in HEK-293 in vitro cell assay (4 versus 5 arginine subunits) [fold] | decrease in potency relative to Ac-carrrar-NH2 (SEQ ID NO:26) [fold] | reduction in potency relative to Ac-carrrar-NH2 (SEQ ID NO:26) [fold]
CXRXRXR (N-terminal acetyl; C-terminal amide; L-Cys 1, D-Ala 2, L-Arg 3, D-Arg 4, L-Arg 5, D-Ala 6, L-Arg 7) [Ac-CaRrRaR-NH2] | < 4 | – | – | –
XXXXX (N-terminal acetyl; C-terminal amide; all residues D-amino acids) [Ac-crrrr-NH2] | – | > 10 | – | –
XAXXXAX (N-terminal acetyl; C-terminal amide; D-amino acids except L-Ala 2 and L-Ala 6) [Ac-cArrrAr-NH2] | – | – | > 600 | –
XGXXXGX (N-terminal acetyl; C-terminal amide; D-amino acids except Gly 2 and Gly 6) [Ac-cGrrrGr-NH2] | – | – | – | < 8
